Experimental data: PMC2768332

Target: T1, KSRP (UniProt Q92945 1-711)
T1 sequence: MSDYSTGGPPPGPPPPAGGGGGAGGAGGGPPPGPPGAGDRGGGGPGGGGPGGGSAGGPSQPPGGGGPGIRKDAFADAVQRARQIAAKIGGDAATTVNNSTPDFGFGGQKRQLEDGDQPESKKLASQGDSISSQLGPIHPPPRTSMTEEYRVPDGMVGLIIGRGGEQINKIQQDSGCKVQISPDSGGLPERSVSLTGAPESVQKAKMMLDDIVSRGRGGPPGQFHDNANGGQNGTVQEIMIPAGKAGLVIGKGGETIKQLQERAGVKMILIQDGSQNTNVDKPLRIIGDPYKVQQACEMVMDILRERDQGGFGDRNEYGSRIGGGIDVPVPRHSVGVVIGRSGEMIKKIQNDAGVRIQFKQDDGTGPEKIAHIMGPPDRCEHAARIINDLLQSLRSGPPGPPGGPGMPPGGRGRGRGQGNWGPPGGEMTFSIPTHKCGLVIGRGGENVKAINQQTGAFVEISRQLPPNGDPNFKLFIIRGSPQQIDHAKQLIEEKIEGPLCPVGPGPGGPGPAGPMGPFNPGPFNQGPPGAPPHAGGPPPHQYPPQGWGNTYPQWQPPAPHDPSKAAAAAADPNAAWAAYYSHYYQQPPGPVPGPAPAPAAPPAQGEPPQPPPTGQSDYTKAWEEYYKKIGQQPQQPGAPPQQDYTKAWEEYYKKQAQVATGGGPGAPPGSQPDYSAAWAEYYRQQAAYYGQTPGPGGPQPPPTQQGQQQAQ
Assay: UV-crosslinking or EMSA

Row | Binder | binding result
1 | CUGUUGAAUCUCAUGG (ssRNA) [TL-miR-21 WT] | binds
2 | CUCUUCAAUCUCAUGG (ssRNA) [TL-miR-21 M2] | no binding
